# Test results taken from patent US6869925 (Amgen, dated 2005).
# Columns and labels:
# [1] = biological target: SLPI binding sites on U937 cells (human monocyte cell line; intact cells, PMA-induced cells or plasma membranes) (human); test: 125I-SLPI saturation binding, intact U937 cells, *SLPI at 40 pM
# [2] = biological target: SLPI binding sites on U937 cells (human monocyte cell line; intact cells, PMA-induced cells or plasma membranes) (human); test: 125I-SLPI saturation binding, intact U937 cells, *SLPI at 80 pM
# [3] = biological target: SLPI binding sites on HuT78 cells (human T cell line) (human); test: 125I-SLPI saturation binding, intact HuT78 cells, *SLPI at 40 pM
# [4] = biological target: SLPI binding sites on U937 cells (human monocyte cell line; intact cells, PMA-induced cells or plasma membranes) (human); test: 125I-SLPI saturation binding, intact U937 cells, *SLPI at 160 pM
# [5] = biological target: SLPI binding sites on U937 cells (human monocyte cell line; intact cells, PMA-induced cells or plasma membranes) (human); test: 125I-SLPI saturation binding, intact U937 cells, *SLPI at 640 pM
# [6] = biological target: SLPI binding sites on U937 cells (human monocyte cell line; intact cells, PMA-induced cells or plasma membranes) (human); test: competition with 125I-SLPI, intact U937 cells, cold SLPI at 26 nM
# [7] = biological target: SLPI binding sites on U937 cells (human monocyte cell line; intact cells, PMA-induced cells or plasma membranes) (human); test: competition with 125I-SLPI, intact U937 cells, competitor at 0 nM
# [8] = biological target: SLPI binding sites on HuT78 cells (human T cell line) (human); test: 125I-SLPI saturation binding, intact HuT78 cells, *SLPI at 2560 pM
# [9] = biological target: SLPI binding sites on HuT78 cells (human T cell line) (human); test: competition with 125I-SLPI, intact HuT78 cells, cold SLPI at 26 nM
# [10] = biological target: SLPI binding sites on U937 cells (human monocyte cell line; intact cells, PMA-induced cells or plasma membranes) (human); test: competition with 125I-SLPI, intact U937 cells, cold SLPI at 860 nM
# [11] = biological target: SLPI binding sites on U937 cells (human monocyte cell line; intact cells, PMA-induced cells or plasma membranes) (human); test: 125I-SLPI saturation binding, U937 cells minus PMA, *SLPI at 320 pM
# [12] = biological target: SLPI binding sites on U937 cells (human monocyte cell line; intact cells, PMA-induced cells or plasma membranes) (human); test: competition with 125I-SLPI, intact U937 cells, cold SLPI at 0.25 nM
# [13] = biological target: SLPI binding sites on HuT78 cells (human T cell line) (human); test: competition with 125I-SLPI, intact HuT78 cells, Kd by Cheng-Prusoff
# [14] = biological target: SLPI binding sites on HuT78 cells (human T cell line) (human); test: Scatchard plot of 125I-SLPI saturation binding, intact HuT78 cells
# [15] = biological target: SLPI binding sites on U937 cells (human monocyte cell line; intact cells, PMA-induced cells or plasma membranes) (human); test: 125I-SLPI saturation binding, U937 cells plus PMA, *SLPI at 5,120 pM
# [16] = biological target: SLPI binding sites on U937 cells (human monocyte cell line; intact cells, PMA-induced cells or plasma membranes) (human); test: competition with 125I-SLPI, intact U937 cells, competitor at 0.25 nM
# [17] = biological target: SLPI binding sites on U937 cells (human monocyte cell line; intact cells, PMA-induced cells or plasma membranes) (human); test: competition with 125I-SLPI, intact U937 cells, competitor at 0.80 nM
# [18] = biological target: SLPI binding sites on U937 cells (human monocyte cell line; intact cells, PMA-induced cells or plasma membranes) (human); test: competition with 125I-SLPI, intact U937 cells, competitor at 2750 nM
# [19] = biological target: SLPI binding sites on HuT78 cells (human T cell line) (human); test: competition with 125I-SLPI, intact HuT78 cells, cold SLPI at 0.078 nM
# [20] = biological target: SLPI binding sites on U937 cells (human monocyte cell line; intact cells, PMA-induced cells or plasma membranes) (human); test: competition with 125I-SLPI, U937 plasma membranes, competitor at 0 nM
# [21] = biological target: SLPI binding sites on U937 cells (human monocyte cell line; intact cells, PMA-induced cells or plasma membranes) (human); test: 125I-SLPI saturation binding, U937 cells minus PMA, *SLPI at 10,240 pM
# [22] = biological target: SLPI binding sites on U937 cells (human monocyte cell line; intact cells, PMA-induced cells or plasma membranes) (human); test: Scatchard plot of 125I-SLPI saturation binding, PMA-induced U937 cells
# [23] = biological target: SLPI binding sites on U937 cells (human monocyte cell line; intact cells, PMA-induced cells or plasma membranes) (human); test: competition with 125I-SLPI, U937 plasma membranes, competitor at 2.56 nM
# [24] = biological target: SLPI binding sites on U937 cells (human monocyte cell line; intact cells, PMA-induced cells or plasma membranes) (human); test: competition with 125I-SLPI, U937 plasma membranes, competitor at 2750 nM
# [25] = biological target: SLPI binding sites on U937 cells (human monocyte cell line; intact cells, PMA-induced cells or plasma membranes) (human); test: competition with 125I-SLPI, U937 plasma membranes, competitor at 83.9 nM
# serine leukocyte protease inhibitor (SLPI), sequence (P03973 26-132): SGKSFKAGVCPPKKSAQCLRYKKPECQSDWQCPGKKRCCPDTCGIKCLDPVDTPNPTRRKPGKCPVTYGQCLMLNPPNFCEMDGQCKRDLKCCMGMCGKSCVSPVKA
substance,measurement,setting,value
serine leukocyte protease inhibitor (SLPI) (from UniProt P03973 26-132),bound *SLPI (pM),[1],9.5 pM
same,bound per free,[1],0.311
same,sites bound per cell (sites per cell),[1],572
same,specific cpm,[1],380 cpm
same,bound *SLPI (pM),[2],13.6 pM
same,bound per free,[2],0.205
same,sites bound per cell (sites per cell),[2],819
same,specific cpm,[2],543 cpm
same,specific cpm,[3],0 cpm
same,bound *SLPI (pM),[4],32.9 pM
same,bound per free,[4],0.259
same,sites bound per cell (sites per cell),[4],1980
same,specific cpm,[4],1320 cpm
same,bound *SLPI (pM),[5],116 pM
same,bound per free,[5],0.221
same,sites bound per cell (sites per cell),[5],6990
same,specific cpm,[5],4630 cpm
same,% *SLPI BOUND,[6],12%
same,% *SLPI BOUND,[7],109%
same,bound pM,[8],9.98 pM
same,bound per free,[8],0.0039
same,sites bound per cell (sites per cell),[8],501
same,specific cpm,[8],398 cpm
same,% *SLPI BOUND,[9],37%
same,% *SLPI BOUND,[10],0%
same,bound *SLPI (pM),[11],101 pM
same,bound per free,[11],0.461
same,sites bound per cell (sites per cell),[11],6080
same,specific cpm,[11],1080 cpm
same,% *SLPI BOUND,[12],92%
same,Kd,[13],2 nM
same,Kd,[14],2 nM
same,bound pM,[15],135 pM
same,bound per free,[15],0.027
same,sites bound per cell (sites per cell),[15],8130
same,specific cpm,[15],1440 cpm
same,% *SLPI BOUND,[16],106%
same,% *SLPI BOUND,[17],78%
same,% *SLPI BOUND,[18],4%
same,% *SLPI BOUND,[19],90%
same,CPM *SLPI BOUND,[20],18700 cpm
same,bound *SLPI (pM),[21],844 pM
same,bound per free,[21],0.09
same,sites bound per cell (sites per cell),[21],50800
same,specific cpm,[21],9020 cpm
same,Kd,[22],1 nM
same,CPM *SLPI BOUND,[23],11000 cpm
same,CPM *SLPI BOUND,[24],1680 cpm
same,CPM *SLPI BOUND,[25],2070 cpm
